Tested on: BG02 hESCs
Experiment: QRT-PCR of mesendoderm, definitive endoderm and other lineage transcripts in hESCs differentiated in defined media
Assay type: cell-based, human
Conditions: FIG. 7; Wnt3a 25 ng/ml; over 72 hours of treatment
Experimental: For DE differentiation, media was replaced after ˜18-24 hours with differentiation media (a), in the presence or absence of Wnt3a (25 ng/ml). RNA was prepared from cultures at times indicated and subject to QRT-PCR analysis of T, MixL1, GSC, Sox17 and CXCR4 transcripts. QRT-PCR reactions are normalized to GAPDH control. ‘Assays on demand’ QRT-PCR reactions were from Applied Biosystems and have been described previously (McLean et al., 2007).
BG02 hESCs were plated in defined conditions (a) and after 18 hours media was switched to differentiation media (a) with Wnt3a (25 ng/ml) for the first 24 hours. The time course proceeded for 96 hours. Untreated hESCs (96 hours) or cells in differentiation media (a) were collected at 24, 48, 72 and 96 hours for QRT-PCR analysis. ‘Assays on demand’ QRT-PCR reactions were from Applied Biosystems and have been described previously (McLean et al., 2007).
Culture of hESCs: Methods: hESCs are preferably grown in MEF-CM (details from previous filings) or defined media using Matrigel (1:200 dilution) as a growth matrix (for example). Cells are passaged manually or by using enzymatic methods such as collagenase or accutase and typically plated at 1×10^6 per 60 mm dish for 12-24 hours in hESC media then media is changes to promote DE differentiation (see ‘Differentiation media’ below). During differentiation, ‘differentiation media’ is replaced every day. […]

B1: Wnt3a: growth factor Wnt3a (25 ng/ml, R&D Systems) (protein, UniProt P56704 19-352, looked up)
Protein Wnt-3a: SYPIWWSLAVGPQYSSLGSQPILCASIPGLVPKQLRFCRNYVEIMPSVAEGIKIGIQECQHQFRGRRWNCTTVHDSLAIFGPVLDKATRESAFVHAIASAGVAFAVTRSCAEGTAAICGCSSRHQGSPGKGWKWGGCSEDIEFGGMVSREFADARENRPDARSAMNRHNNEAGRQAIASHMHLKCKCHGLSGSCEVKTCWWSQPDFRAIGDFLKDKYDSASEMVVEKHRESRGWVETLRPRYTYFKVPTERDLVYYEASPNFCEPNPETGSFGTRDRTCNVSSHGIDGCDLLCCGRGHNARAERRREKCRCVFHWCCYVSCQECTRVYDVHTCK
- amount of CXCR4 mRNA produced, presence versus absence of Wnt3a: improves the amount of CXCR4 mRNA produced

Reference: US20090298169A1, “Pancreatic and Liver Endoderm Cells and Tissue by Differentiation of Definitive Endoderm Cells Obtained from Human Embryonic Stems” (The University of Georgia Research Foundation, priority 2006, published 2009)
